Experimental data as given in US20210403579A1 (DELINIA, published 2021).

B1: Human ST2 IgG1 Antibody 81 (antibody, V domains shown)
VH: EVQLLESGGGLVKPGGSLRLSCAASGFTFSSYWMSWVRQAPGKGLEWVSSISSSGNYMYYAVSVKGRFTISRDDSKNTLYLQMNSLKTEDTAVYYCATETYSYSSMDVWGQGTTVTVSS
VL: DIQMTQSPSSLSASVGDRVTITCRASQSISSYLNWYQQKPGKAPKLLIYDASNLETGVPSRFSGSGSGTDFTLTISSLQPEDFATYYCQQSYGTPLTFGGGTKVDIKR
notes: IgG1; also called ST2 Antibody 81
B2: Human ST2 IgG1 Antibody 82 (antibody, V domains shown)
VH: QVQLVQSGAEVKKPGASVKVSCKASGYTFTENEMHWVRQAPGQGLEWMGWISAYNGDTNYAQKFQGRVTMTRDTSTSTVYMELSSLRSEDTAVYYCAKEVRLDDDEMWYFDLWGRGTLVTVSS
VL: DIQMTQSPSSLSASVGDRVTITCRASQDINNFLVWYQQKPGKAPKLLIYDASNLETGVPSRFSGSGSGTDFTLTISSLQPEDFATYYCQQAYSFPLTFGGGTKVEIKR
notes: IgG1; also called ST2 Antibody 82
B3: Human ST2 IgG1 Antibody 72 (antibody, V domains shown)
VH: EVQLLESGGGLVQPGGSLRLSCAASGFTFSSYGMSWVRQAPGKGLEWLAVIWSDGGHKYYADSVKGRFTISRDNSKNTLYLQMNSLRAEDTAVYYCAREVRGWFDPWGQGTLVTVSS
VL: DIQMTQSPSSLSASVGDRVTITCRASENIGTWLAWYQQKPGKAPKLLIYKASSLDSGVPSRFSGSGSGTDFTLTISSLQPEDFATYYCQQSYSTPYTFGQGTKLEIKR
notes: IgG1; also called ST2 Antibody 72
B4: Human ST2 IgG1 Antibody 74 (antibody, V domains shown)
VH: EVQLLESGGGLVQPGGSLRLSCAASGFTFSSYWMSWVRQAPGKGLEWVSSISSSSSYIYYADSVKGRFTISRDNSKNTLYLQMNSLRAEDTAVYYCARDQGWFDPWGQGTLVTVSS
VL: DIQMTQSPSSLSASVGDRVTITCRASRAIGNNLSWYQQKPGKAPKLLIYTASSLQSGVPSRFSGSGSGTDFTLTISSLQPEDFATYYCQQSYSTPYTFGQGTKVEIKR
notes: IgG1; also called ST2 Antibody 74
B5: Human ST2 IgG1 Antibody 70 (antibody, V domains shown)
VH: QVQLVQSGAEVKKPGSSVKVSCKASGYAFTDYFIHWVRQAPGQGLEWMGGIIPIFGTANYAQKFQGRVTITADKSTSTAYMELSSLRSEDTAVYYCARVAYGAFDIWGQGTMVTVSS
VL: EIVMTQSPATLSVSPGERATLSCRASQSVSSSYLAWYQQKPGQAPRLLIYGASTRATGIPARFSGSGSGTEFTLTISSLQSEDFAVYYCQQYNNWPLTFGGGTKVEIKR
notes: IgG1; also called ST2 Antibody 70
B6: Human ST2 IgG1 Antibody 88 (antibody, V domains shown)
VH: EVQLLESGGGLVQPGGSLRLSCAASGFTFSSYWMSWVRQAPGKGLEWVSSISSSGGYLYYADSVKGRFTISRDNSKNTLYLQMNSLRAEDTAVYYCARDWGLTPDYWGQGTLVTVSS
VL: not shown
notes: IgG1; also called ST2 Antibody 88
B7: Human ST2 IgG1 Antibody 85 (antibody, V domains shown)
VH: EVQLLESGGGLVQPGGSLRLSCAASGFSFSTYWMHWVRQAPGKGLEWVSGISGGGIYTYYADSVKGRFTISRDNSKNTLYLQMNSLRAEDTAVYYCASMTYGDYYGMDVWGQGTTVTVSS
VL: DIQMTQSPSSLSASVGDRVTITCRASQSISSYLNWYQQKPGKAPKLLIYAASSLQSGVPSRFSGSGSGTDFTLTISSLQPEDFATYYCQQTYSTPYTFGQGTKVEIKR
notes: IgG1; also called ST2 Antibody 85
B8: Human ST2 IgG1 Antibody 73 (antibody, V domains shown)
VH: EVQLLESGGGLVQPGGSLRLSCAASGFAFSSHWMHWVRQAPGKGLEWVAVISYDGSNKYYADSVKGRFTISRDNSKNTLYLQMNSLRAEDTAVYYCARDRGMIDYWGQGTLVTVSS
VL: DIQMTQSPSSLSASVGDRVTITCRASQGIGSWLAWYQQKPGKAPKLLIHAATKLQTGVPSRFSGSGSGTDFTLTISSLQPEDFATYYCQQSYSTPFTFGPGTKVDIKR
notes: IgG1; also called ST2 Antibody 73
B9: Human ST2 IgG1 Antibody 87 (antibody, V domains shown)
VH: QVQLVQSGAEVKKPGASVKVSCKASGYTFAGQYMHWVRQAPGQGLEWMGNINPSGGSTSYAQRFQGRVTMTRDTSTSTVYMELSSLRSEDTAVYYCARGDYSETYYYYMDVWGKGTTVTVSS
VL: DIQMTQSPSSLSASVGDRVTITCRASQHINSNLNWYQQKPGKAPKLLIYGASSLQSGVPSRFSGSGSGTDFTLTISSLQPEDFATYYCQQSYTTPFTFGPGTKVDIKR
notes: IgG1; also called ST2 Antibody 87
B10: Human ST2 IgG1 Antibody 77 (antibody, V domains shown)
VH: QVQLVQSGAEVKKPGSSVKVSCKASGYTFSDHYIHWVRQAPGQGLEWMGGIIPILGTANYAQKFQGRVTITADESTSTAYMELSSLRSEDTAVYYCATDIAVAGTGFDYWGQGTLVTVSS
VL: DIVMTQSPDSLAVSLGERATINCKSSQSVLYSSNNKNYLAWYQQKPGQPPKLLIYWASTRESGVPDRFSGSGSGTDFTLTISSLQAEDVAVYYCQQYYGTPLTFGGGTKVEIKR
notes: IgG1; also called ST2 Antibody 77
B11: Human ST2 IgG1 Antibody 80 (antibody, V domains shown)
VH: QVQLVQSGAEVKKPGSSVKVSCKASGGTFSSYAISWVRQAPGQGLEWMGGIIPIFGTANYAQKFQGRVTITADESTSTAYMELSSLRSEDTAVYYCARVMVAGTGYYFDYWGQGTLVTVSS
VL: DIVMTQSPLSLPVTPGEPASISCRSSQSLLHSNGYNYLDWYLQKPGQSPQLLIYGASSLQSGVPDRFSGSGSGTDFTLKISRVEAEDVGVYYCMQGLHTPPTFGQGTKLEIKR
notes: IgG1; also called ST2 Antibody 80
B12: Human ST2 IgG1 Antibody 90 (antibody, V domains shown)
VH: QVQLVQSGAEVKKPGSSVKVSCKASGYTFSDFSIHWVRQAPGQGLEWMGGMLPISHIAHYARKFQGRVTITADESTSTAYMELSSLRSEDTAVYYCARGGSSGWFEVWGQGTTVTVSS
VL: DIVMTQSPLSLPVTPGEPASISCRSSQSLLHSNGYNYLDWYLQKPGQSPQLLIYAASTLQSGVPDRFSGSGSGTDFTLKISRVEAEDVGVYYCMQGAHWPPTFGQGTKLEIKR
notes: IgG1; also called ST2 Antibody 90
B13: Human ST2 IgG1 Antibody 84 (antibody, V domains shown)
VH: QVQLVQSGAEVKKPGSSVKVSCKASGGTFSSYALSWVRQAPGQGLEWMGGIIPIFGTANYAQKFQGRVTITADESTSTAYMELSSLRSEDTAVYYCARAAAAGTAWYFDLWGRGTLVTVSS
VL: not shown
notes: IgG1; also called ST2 Antibody 84
B14: Human ST2 IgG1 Antibody 71 (antibody, V domains shown)
VH: QVQLVQSGAEVKKPGASVKVSCKASGGTFSNYGVSWVRQAPGQGLEWMGGINPSRGTTTYAQKFQGRVTMTRDTSTSTVYMELSSLRSEDTAVYYCAKGDIVVVPAAMFSLGPGYYYYMDVWGKGTTVTVSS
VL: DIQMTQSPSSLSASVGDRVTITCRASQSISSYLNWYQQKPGKAPKLLIYAASSLQSGVPSRFSGSGSGTDFTLTISSLQPEDFATYYCQQANSFPITFGQGTKLEIKR
notes: IgG1; also called ST2 Antibody 71
B15: Human ST2 IgG1 Antibody 89 (antibody, V domains shown)
VH: EVQLLESGGGLVKPGGSLRLSCAASGFTFSSYWMSWVRQAPGKGLEWVSAISGTAINTYYADSVKGRFTISRDDSKNTLYLQMNSLKTEDTAVYYCARVRRDSSGGGAFDIWGQGTMVTVSS
VL: DIQMTQSPSSLSASVGDRVTITCRASQGISNNLNWYQQKPGKAPKLLIYAASSLQTGVPSRFSGSGSGTDFTLTISSLQPEDFATYYCQQSYSTPPTFGQGTKVEIKR
notes: IgG1; also called ST2 Antibody 89
B16: Human ST2 IgG1 Antibody 83 (antibody, V domains shown)
VH: EVQLLESGGGLVKPGGSLRLSCAASGFTFSSYWMSWVRQAPGKGLEWVSAIGTAGDTYYPGSVKGRFTISRDDSKNTLYLQMNSLKTEDTAVYYCAILRRDKVWPFDYWGQGTLVTVSS
VL: DIQMTQSPSSLSASVGDRVTITCRASQSISSHLHWYQQKPGKAPKLLIYAASSLQSGVPSRFSGSGSGTDFTLTISSLQPEDFATYYCQQSYSSPVTFGGGTKVEIKR
notes: IgG1; also called ST2 Antibody 83
B17: Human ST2 IgG1 Antibody 75 (antibody, V domains shown)
VH: EVQLLESGGGLVQHGGSLRLSCAASGFTFSSYWMSWVRQAPGKGLEWVSSISSSSSYIYYADSVKGRFTISRDNSKNTLYLQMNSLRAEDTAVYYCARDIAGYFDLWGRGTLVTVSS
VL: DIQMTQSPSSLSASVGDRVTITCQASQSISSYLNWYQQKPGKAPKLLIYAASSLQSGVPSRFSGSGSGTDFTLTISSLQPEDFATYYCQQGYLTPYTFGQGTKLEIKR
notes: IgG1; also called ST2 Antibody 75
B18: Human ST2 IgG1 Antibody 78 (antibody, V domains shown)
VH: EVQLLESGGGLVQPGGSLRLSCAASDFNFKNAWMSWVRQAPGKGLEWVSAISGNGAGTYYADSVKGRFTISRDNSKNTLYLQMNSLRAEDTAVYYCARVGETGAFDIWGQGTTVTVSS
VL: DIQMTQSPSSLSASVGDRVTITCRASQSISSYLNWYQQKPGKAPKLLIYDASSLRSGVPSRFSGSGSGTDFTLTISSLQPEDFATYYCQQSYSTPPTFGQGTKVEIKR
notes: IgG1; also called ST2 Antibody 78
B19: Human ST2 IgG1 Antibody 76 (antibody, V domains shown)
VH: QVQLVQSGAEVKKPGSSVKVSCKASGYTFTDYYMHWVRQAPGQGLEWMGVIIPVLGAAKYAQKFQGRVTITADESTSTAYMELSSLRSEDTAVYYCAKGWGAFDIWGQGTMVTVSS
VL: EIVMTQSPATLSVSPGERATLSCRASQSVSSYLAWYQQKPGQAPRLLIYGASTRASGIPARFSGSGSGTEFTLTISSLQSEDFAVYYCQQYYSYPWTFGQGTKVEIKR
notes: IgG1; also called ST2 Antibody 76
B20: Human ST2 IgG1 Antibody 86 (antibody, V domains shown)
VH: QVQLVQSGAEVKKPGSSVKVSCKASGGTFSNYAISWVRQAPGQGLEWMGGIIPIFGTANYAQKFQGRVTITADESTSTAYMELSSLRSEDTAVYYCAKDLGGWFNLFDPWGQGTLVTVSS
VL: EIVMTQSPATLSVSPGERATLSCRASQGVSSYLAWYQQKPGQAPRLLIYGASTRATGIPARFSGSGSGTEFTLTISSLQSEDFAVYYCQQYRSFPLTFGGGTKVEIKR
notes: IgG1; also called ST2 Antibody 86

The binders below were run against T1, Human ST2 (human, UniProt Q01638 19-328, limits assumed) (assay: SPR (Carterra), antibody immobilized, ST2 analyte).
T1 construct: also called human ST2 protein; Interleukin 1 receptor-like 1
T1 sequence (looked up): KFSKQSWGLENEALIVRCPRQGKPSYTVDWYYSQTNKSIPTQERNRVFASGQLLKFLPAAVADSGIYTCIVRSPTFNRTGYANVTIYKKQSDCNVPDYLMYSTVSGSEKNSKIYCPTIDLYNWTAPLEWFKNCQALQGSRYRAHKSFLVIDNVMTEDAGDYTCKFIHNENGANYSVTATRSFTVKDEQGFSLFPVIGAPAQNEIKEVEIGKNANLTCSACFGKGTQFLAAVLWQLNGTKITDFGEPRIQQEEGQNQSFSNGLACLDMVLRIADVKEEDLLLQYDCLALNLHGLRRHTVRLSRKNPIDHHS
Experimental: Binding of the reformatted human ST2 antibodies to the human and mouse ST2 proteins was evaluated by surface plasmon resonance (SPR), using a high throughput antibody screening and characterization platform from Carterra (Salt Lake City, Utah).
B1 showed a Kd of 126 nM, a koff of 0.026 s⁻¹ and a kon of 200000 M⁻¹ s⁻¹. B2 was tested, and the Kd was 204 nM, the koff was 0.003 s⁻¹ and the kon was 15000 M⁻¹ s⁻¹. In the case of B3, the Kd is reported as 335 nM, the koff is reported as 0.082 s⁻¹ and the kon is reported as 240000 M⁻¹ s⁻¹. B4 was tested, and the Kd was 60 nM, the koff was 0.012 s⁻¹ and the kon was 200000 M⁻¹ s⁻¹. Binder B5 has a Kd of 268 nM, a koff of 0.099 s⁻¹ and a kon of 370000 M⁻¹ s⁻¹. B6 gave a Kd of 543 nM, a koff of 0.13 s⁻¹ and a kon of 240000 M⁻¹ s⁻¹. B7 gave a Kd of 554 nM, a koff of 0.068 s⁻¹ and a kon of 120000 M⁻¹ s⁻¹. Work on B8 yielded a Kd of 603 nM, a koff of 0.085 s⁻¹ and a kon of 140000 M⁻¹ s⁻¹. B9 was tested, and the Kd was 642 nM, the koff was 0.018 s⁻¹ and the kon was 27000 M⁻¹ s⁻¹. B10 gave a Kd of 377 nM, a koff of 0.099 s⁻¹ and a kon of 260000 M⁻¹ s⁻¹. Binder B11 has a Kd of 842 nM, a koff of 0.056 s⁻¹ and a kon of 67000 M⁻¹ s⁻¹. B12 showed a Kd of 970 nM, a koff of 0.17 s⁻¹ and a kon of 170000 M⁻¹ s⁻¹. In the case of B13, the Kd is reported as 125 nM, the koff is reported as 0.0019 s⁻¹ and the kon is reported as 15000 M⁻¹ s⁻¹. B14 gave a Kd of 912 nM, a koff of 0.12 s⁻¹ and a kon of 140000 M⁻¹ s⁻¹. In the case of B15, the Kd is reported as 102 nM, the koff is reported as 0.024 s⁻¹ and the kon is reported as 240000 M⁻¹ s⁻¹. Binder B16 has a Kd of 70 nM, a koff of 0.018 s⁻¹ and a kon of 260000 M⁻¹ s⁻¹. In the case of B17, the Kd is reported as 360 nM, the koff is reported as 0.041 s⁻¹ and the kon is reported as 120000 M⁻¹ s⁻¹. B18 showed a Kd of 154 nM, a koff of 0.082 s⁻¹ and a kon of 530000 M⁻¹ s⁻¹. B19 was tested, and the Kd was 133 nM, the koff was 0.11 s⁻¹ and the kon was 820000 M⁻¹ s⁻¹. Binder B20 has a Kd of 41 nM, a koff of 0.029 s⁻¹ and a kon of 720000 M⁻¹ s⁻¹.
